The text below walks through data of paper doi:10.1101/2023.01.08.523168 (bioRxiv, 2023).

Read-outs that look alike come from different tables or passages of the source. No end group written: not given here. *: point of attachment. Oxazole(5-CO) = O=C(c1cnco1)*; Crotonyl(E) = C/C=C/C(=O)*; 2Furoyl = O=C(c1ccco1)*; Butyryl = CCCC(=O)*

For assay [1], the target named is T1, AF9 YEATS domain (human, UniProt P42568 1-138).
T1 sequence (looked up): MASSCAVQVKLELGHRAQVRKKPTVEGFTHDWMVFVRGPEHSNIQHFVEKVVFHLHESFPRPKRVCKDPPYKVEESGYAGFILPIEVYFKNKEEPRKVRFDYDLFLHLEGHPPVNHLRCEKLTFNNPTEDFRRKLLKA
The assay is described as follows: AlphaScreen or HTRF.

Assay [2] deals with T1, AF9 YEATS domain. In words: BLI.
Assay [3] has as its target T2, 6x His-tagged ENL YEATS domain (human, UniProt Q03111 1-138).
T2 sequence (looked up): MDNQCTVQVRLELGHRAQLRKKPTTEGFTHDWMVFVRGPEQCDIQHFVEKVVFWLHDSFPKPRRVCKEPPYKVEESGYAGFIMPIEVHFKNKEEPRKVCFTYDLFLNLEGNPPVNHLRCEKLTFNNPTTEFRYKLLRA
In words: BLI.

Assay [4] deals with T2, 6x His-tagged ENL YEATS domain. The assay is described as follows: AlphaScreen or HTRF.
For assay [5], the target named is T3, NanoLuc luciferase (NLuc)-ENL YEATS fusion protein (human, UniProt Q03111 1-148).
T3 sequence (looked up): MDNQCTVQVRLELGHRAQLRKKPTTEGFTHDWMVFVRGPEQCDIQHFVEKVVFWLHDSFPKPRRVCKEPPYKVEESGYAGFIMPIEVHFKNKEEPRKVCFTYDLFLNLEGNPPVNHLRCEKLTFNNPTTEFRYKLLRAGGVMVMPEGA
In words: FRET or BRET.

Assay [6] deals with T3, NanoLuc luciferase (NLuc)-ENL YEATS …. The assay is described as follows: FRET or BRET. This is another data set of the same source.
Assay [7] shares this target. In words: FRET or BRET. This is another data set of the same source.

On to YDVYCYK(2Furoyl)-NH2 [ENL-S1f], for which the “fold lower potency (IC50) toward AF9 YEATS than toward ENL YEATS” value (shortened to “fold lower potency”) with AF9 YEATS domain [1] was 7.7 fold. In addition, the results for the Kd (in the assay with AF9 YEATS domain [2]; in assay [3]) were 144 nM and 10.3 nM, respectively. In assay [4], this molecule came in with an IC50 of 22 nM.

In the case of WWIIEK(Butyryl)G-NH2 [ENL-S2], in assay [3], the Kd was 881 nM, the koff came to 0.00554 s⁻¹ and the association rate constant (kon) came out at 6290 M⁻¹ s⁻¹. It took 1220 nM to reach half-maximal inhibition in assay [4] (IC50).

As for Ac-VYCYK(2Furoyl)-NH2 [tENL-S1f], the IC50 came to 4100 ± 1100 nM in assay [5], 4200 ± 1100 nM in assay [6] and 6400 ± 1600 nM in assay [7]. Further, the “fold selectivity for ENL YEATS over AF9” value with AF9 YEATS domain [2] came out at 12 fold.

On to YDVYCYK(Butyryl)-NH2 [ENL-S1], for which, in the assay with AF9 YEATS domain [1], the “fold lower potency” value was determined as 4 fold. This molecule also yielded a Kd in the assay with AF9 YEATS domain [2] of 205 nM. In assay [3], the affinity, expressed as Kd, was 36.3 nM; the koff is 0.00226 s⁻¹; the kon stood at 62300 M⁻¹ s⁻¹. This molecule came in with a half-inhibitory concentration (IC50) in assay [4] of 63 nM.

Consider YDVYCYK(Oxazole(5-CO))-NH2 [ENL-S1o], for which the “fold lower potency” value with AF9 YEATS domain [1] was 23 fold. Moreover, the values for the Kd (with AF9 YEATS domain [2]; in assay [3]) were 55.1 nM and 2 nM, respectively. The IC50 in assay [4] was 10 nM.

Consider YDVYCYK(Crotonyl(E))-NH2 [ENL-S1c], for which, in the assay with AF9 YEATS domain [1], the “fold lower potency” value was 18 fold. The dissociation constant Kd in the assay with AF9 YEATS domain [2] stood at 147 nM; in assay [3], 16.2 nM. For the same molecule, half-maximal inhibition in assay [4] (IC50) was put at 20 nM.
